Test results published in the nanobody polyreactivity screen of Harvey et al. (2022).

Assay: yeast display, Sf9 membrane polyspecificity reagent, FACS + sequencing; frameworks hold sequencing errors
Method in brief: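 A synthetic nanobody library was expressed on Saccharomyces cerevisiae BJ5465 by galactose induction for 36–48 hours. The library was stained for 1 hour at 4 °C with 10% biotinylated, detergent-solubilized Sf9 membrane reagent and enriched with streptavidin microbeads before FACS. Low and high (top ~1%) gates were set on anti-HA fluorescence for expression and streptavidin fluorescence for reagent binding, and each polyreactivity label reflects the gate of origin.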

Sequence	polyreactivity (PSR sort gate)
QVQLVESGGGLVQAGGSLRLTCAASGRIFQRYAMGWYRQAPGKERELVAGITSSGGSTYYADSVKGRFTISRDNAKNTVYLQMNSLKPEDTAVYYCNAGGELRYYGYRAGGTTRSYDYWGQGTQVTVSS	low polyreactivity
QVQLVESGGGLVQAGGSLRLTCAASGRIFRRNAMGGYRQAPGKEREMVATITSGSSTNYADSVKGRFTISRDNAKNTVYLQMHSLKPEDTAVYYCAKLPWKYRVGYYRNQQTYDYWGQGTQVTVSS	high polyreactivity
QVQLVESGGGLVQAGGSLRLTCAASGRIFYPYPMGWYRQAPGKERELVAAIDKGGGSTYYADSVKGRFSISRDNAKNTVYLQMNSLKPEDTAVFYCAAGWEYPYDYWGQGTQVTVSS	low polyreactivity
QVQLVESGGGLVQAGGSLRLTCAASGRILRINTMGWYRQAPGKEMELVAAISLSGGTTYYAHSVKGRFTISRDNAKNTVYLQMNSVKPEDTAVYYCYKAIWYAEYDYWGQGTQVTVSS	low polyreactivity
QVQLVESGGGLVQAGGSLRLTCAASGRISKIYAMGWYRQAPGKERELVAAINSGGSTNYADSVKGRFTISRDNAKNTVYLQMNSLKPEDTAVYYCAATFKSGMDFWGQGTQVTVSS	high polyreactivity
QVQLVESGGGLVQAGGSLRLTCAASGRTFGHYAMGWYRQAPGKERELVAAISQRGGGTYYADSVKGRFTISRDNAKNTVYLQMNSLKPEDTAVYYCAADFGNSPYIKDYYYWGQGTQVTVSS	low polyreactivity
QVQLVESGGGLVQAGGSLRLTCAASGRTFGKYAMGWYRQAPGKERELVAAISSSGSTNYADSVKGRFTISRDNAKNTDYLQMNSLKPEDTAVYYCAAVQPGQSTVAYDYWGQGTQVTVSS	high polyreactivity
QVQLVESGGGLVQAGGSLRLTCAASGRTFGVNAMGWYRPAPGKERQLVAAITGGGSTYYADSVKGRFTISRDNAKNTVYLQMNSLKPDDTAVYYCNADRRRRSGGFAGWHFERNDYWGQGTQVTVSS	low polyreactivity
QVQLVESGGGLVQAGGSLRLTCAASGRTFIVYAMGWYRQAPGKERELVARISSGSRTSYADSVTGRFTISRDNAKNTVYLQMNSLKPEDTAVYYFAKSRVIKYEFDYWGQGTQVTLSS	low polyreactivity
QVQLVESGGGLVQAGGSLRLTCAASGRTFSVNAMGWYRQAPGKERELVASINWSGGSTYYADSVKGRFTISRDNAKNTVYLQMNSLKPEDTAVYYCAADHSYWDWWSYYYWGQGTQVTVSS	low polyreactivity
QVQLVESGGGLVQAGGSLRLTCAASGRTFWRYAMGWYRQAPGKERELVAAITSGGGSTYYADSVKGRFTISRDNAKNTVYLQMTSLKPEDTAVYYCNRAGRGRSFKGDYWGQGTQVTVSS	high polyreactivity
QVQLVESGGGLVQAGGSLRLTCAASGRTFYPYAMGWYRPAPGKERELVAAISSGVRTYYADSVKGRFTISRDNAKNTVYLQMNSLKPDDTAVYYCAARRSIWGQGTQVTVSS	high polyreactivity
QVQLVESGGGLVQAGGSLRLTCAASGRTYFYNAMGWYIKAPGKERELVAAISTNGGSTYYADSVNGRFTISRDNAKNTVYLQMNSLKPEDTAVYYCNTYAKPHRSGGGLGGHYYWGQGTQVTVSS	low polyreactivity
QVQLVESGGGLVQAGGSLRLTCAASGSIFALYAMGWYRQAPGKERELVAANADSVKGRFTISRDNAKNTVYLQMNSLKPEETAVYYCAKDITGGSGLGSWIYSEYDYWGQGTQVTVSS	low polyreactivity
QVQLVESGGGLVQAGGSLRLTCAASGSIFDYYAMGWYRQAPGKEWELVAAISNGGTTNYADSVKGRFTLSRDNAKNTVYLQMNRLKPEDTAVYYCNADSALYDKAVIYSEYDYWGQGTQVTVSS	low polyreactivity
QVQLVESGGGLVQAGGSLRLTCAASGSIFFPNTMGWSRQAPGKERELVASISYSGGSTYYADSVKGRFTISRDIAKNSVYLQMNSLKPEDTAVYYCARTYWGDRYQFSSNGYEYWGQGTQVTVSS	high polyreactivity

Sequence	polyreactivity (PSR sort gate)
QVQLVESGGGLVQAGGSLRLTCAASGSIFFQNAMGWYRQAPGKERELVATITSSVGSTYYADSVKGRFTISRDNAKNTVYFQMNSLKPEDTAVYYCNVRVFSAALWYTYFGYDYWGQGTQVTVSS	low polyreactivity
QVQLVESGGGLVQAGGSLRLTCAASGSIFLDYAMGWYRQAPAKERELVAGITISGGSTYYADSVKGRFTISRDNAKNTVYLQMNSLKPEDTAVYYCAKVAPRSSSSQEYYYWGQGTQVTVSS	low polyreactivity
QVQLVESGGGLVQAGGSLRLTCAASGSIFQRNAIGWYRQAPGKERELVAAITASGGRTYYADSVKGRFTISRDNAKNTVYLQMNSLKPEDTAVYYCAARGRTYCGGRTYDYWGHGTQVTVSS	high polyreactivity
QVQLVESGGGLVQAGGSLRLTCAASGSIFRYYAMGWYRQAPGKERELVATISSGGRTYYADSVKGRFTISRDNAKNTVYLQMNSLKPEDTAVYYCAAVRLTWTAKYNYWGQGTQVTVSS	high polyreactivity
QVQLVESGGGLVQAGGSLRLTCAASGSIFTGYTMGWYRQAPGKERELVASISRRGGRTYYADSVKGRFTISRDNAKNTVYLQMNSLKPEDTAVYYCAVDRVPWRYQDSYNYWGQGTQVTVSS	high polyreactivity
QVQLVESGGGLVQAGGSLRLTCAASGSIFYPYSMGRYRPAPGKERELVAAISSSGGSTYYADSVKGRFTISRDNAKNTVYLQMNSLKPEDTADYNCAARGKKHAYDYWGQGTQVTVSS	low polyreactivity
QVQLVESGGGLVQAGGSLRLTCAASGSIFYVNAMGWYRQAPGKERELVAAISVRGGRTYYADSVKGRFTISRDNAKNTVYLQMNSLKPEDTAVYYCATRISTVGRYDYWGQGTQVTVSS	high polyreactivity
QVQLVESGGGLVQAGGSLRLTCAASGSTFEVYAMGWYRQAPGKEREFVAAITVDGGSTYYADSVKGRFTISRDNAKNTVYLQMNSLKPEDTAVYYCAADSGSWEYYYWGQGTQVTVSS	low polyreactivity
QVQLVESGGGLVQAGGSLRLTCAASGSTFGYYAMGWNRQATGKERELVASITSDGSTNYADSVKGRFTISRDNAKNTVYLQMNSLKPEDTAVYYCAAYVWRYWHEYDYWGQGTQVTVSS	low polyreactivity
QVQLVESGGGLVQAGGSLRLTCAASGSTFKSYAMGWYRQDPGKERELVAAITVSGGSTYYADSVKGRFTISRDNAKNTVYLMMNSLTPEDTSVYYCAADSVLLKDTGYDYWGQGTQVTVSS	low polyreactivity
QVQLVESGGGLVQAGGSLRLTCAASGSTFPVYAMGWSRQAPGKERELVASISSGADTIYADSVKGRFTISRDNAKNTVYLQMNSLKPEDTSVYYCAVYRPGLTYYDYDYWGQGTQVTVSS	low polyreactivity
QVQLVESGGGLVQAGGSLRLTCAASGSTFRENAMGWNRQAPGKERELVAAITSGGSTYYADSVKGRFTISRDNAKNTVYLQMNSLKPEDTAVYYGNADLEPYDYWGQGTQVTVSS	low polyreactivity
QVQLVESGGGLVQAGGSLRLTCAASGSTFSYYAMGCYRQAPGKERELVAAISTRGSSTYYADSVKGRFTISRDNAKITVYVQMNSLKPEDTAVYYFAVDQYKYDCFYDYYGYTYGYWGQGTQVTVSS	high polyreactivity
QVQLVESGGGLVQAGGSLRLTCAASGSTFVNYTMGWYRQAPGKERELVAAIRYRDGSTYYADSVKGRFTISRDNAKNTVYLQMNSLKPEDTAVYYCNTRITQVGDYIYDYWGQGTQVTVSS	low polyreactivity
QVQLVESGGGLVQAGGSLRLTCAASGSTFVRYAMGWSRQAPGKERELVAAISRGGRTNYADSVKGRFTISRDNAKNTVYLQMNSLKPEDTAVYDCAKDRNIYYTYDYWGQGTQVTVSS	low polyreactivity
QVQLVESGGGLVQAGGSLRLTCAASGSTFVWYAMGWSRQAPGKEREFVATISWSDGSTYYADSVKGRFTISRDNAKNTVYLQMNSLKPEDTAVYYCASDVDRFFTYKYDYWGQGTQVTVSS	low polyreactivity
